Reference: the supplement of paper PMC7125110
± gives the standard error. For some of these results: Fewer inactive variants are shown than the library holds.

B1: glmS ribozyme (parent)
chain: AUAAAAGCGCCAGAACUACAGAAAUGUAGUUGACGAGGAGGAGGUUUAUCGAAUUUUCGGCGGAUGCCUCCAAA

How the values were obtained:
Conditions in all cases: with glucosamine-6-phosphate
glucosamine-6-phosphate [1] = variants of: B1; assay: kcat; higher = faster cleavage; RNA array
In short: (§1)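 The measurements used barcoded ribozyme variants on sequenced MiSeq chips, transcribed in situ by E. coli RNA polymerase and tracked at 37 °C with a hybridised Cy3 probe. Glucosamine-6-phosphate, 40 μM to 10 mM in HEPES/KCl/Mg(OAc)2 buffer, was flowed in while tiles were imaged over ~14 h. Baseline-normalised signals, also normalised to non-cleaving reference variants, gave per-tile medians that were fit to one- or two-exponential decays for kobs. kcat and KM resulted from weighted Michaelis–Menten fits across concentrations.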

glucosamine-6-phosphate [2] = variants of: B1; assay: KM; higher = weaker cofactor use; RNA array
In short: as §1

glucosamine-6-phosphate [3] = variants of: B1; assay: self-cleavage kobs at 40 uM GlcN6P; higher = faster cleavage; RNA array
In short: as §1

glucosamine-6-phosphate [4] = variants of: B1; assay: self-cleavage kobs at 160 uM GlcN6P; higher = faster cleavage; RNA array
In short: as §1

glucosamine-6-phosphate [5] = variants of: B1; assay: self-cleavage kobs at 640 uM GlcN6P; higher = faster cleavage; RNA array
In short: as §1

glucosamine-6-phosphate [6] = variants of: B1; assay: self-cleavage kobs at 2500 uM GlcN6P; higher = faster cleavage; RNA array
In short: as §1

glucosamine-6-phosphate [7] = variants of: B1; assay: self-cleavage kobs at 10000 uM GlcN6P; higher = faster cleavage; RNA array
In short: as §1

AUAAAAGCGCCAGAAUUACAGAAAUGUAGUUGACGAGGAGGAGGUUUAUCGAAUUUUCGGCGGAUGCCUCAAAA [C16U C71A]
kcat (glucosamine-6-phosphate [1]): 0.00166 ± 0.00032 s⁻¹
KM (glucosamine-6-phosphate [2]): 298 ± 95 µM
self-cleavage kobs at 40 uM GlcN6P (glucosamine-6-phosphate [3]): 0.000186 ± 2.6e-05 s⁻¹
self-cleavage kobs at 160 uM GlcN6P (glucosamine-6-phosphate [4]): 0.000667 ± 0.00016 s⁻¹
self-cleavage kobs at 640 uM GlcN6P (glucosamine-6-phosphate [5]): 0.00168 ± 0.0003 s⁻¹
self-cleavage kobs at 2500 uM GlcN6P (glucosamine-6-phosphate [6]): 0.00113 ± 0.00027 s⁻¹
self-cleavage kobs at 10000 uM GlcN6P (glucosamine-6-phosphate [7]): 0.00173 ± 0.00034 s⁻¹

AUAAAAGCGCCAGAACUACAGAAAUUUAGUUGACGAGGAGGAGGUUUAUCGAAUUUUCGGCGGAGGCCUCCAAA [G26U U65G]
kcat (glucosamine-6-phosphate [1]): 0.00661 ± 0.0013 s⁻¹
KM (glucosamine-6-phosphate [2]): 4570 ± 1200 µM
self-cleavage kobs at 40 uM GlcN6P (glucosamine-6-phosphate [3]): 6.93e-05 ± 3.2e-05 s⁻¹
self-cleavage kobs at 160 uM GlcN6P (glucosamine-6-phosphate [4]): 0.00028 ± 0.00012 s⁻¹
self-cleavage kobs at 640 uM GlcN6P (glucosamine-6-phosphate [5]): 0.000733 ± 0.00016 s⁻¹
self-cleavage kobs at 2500 uM GlcN6P (glucosamine-6-phosphate [6]): 0.00291 ± 0.0011 s⁻¹
self-cleavage kobs at 10000 uM GlcN6P (glucosamine-6-phosphate [7]): 0.00449 ± 0.001 s⁻¹

AUAAAAGCGCCAGAAUUACAGAAAUGUAGUUGACGAGGAGGAGGUUUAUCGAAUUUCCGGCGGAUGCCUCCAAA [C16U U57C]
kcat (glucosamine-6-phosphate [1]): 0.000329 ± 0.00013 s⁻¹
self-cleavage kobs at 640 uM GlcN6P (glucosamine-6-phosphate [5]): 5.65e-05 ± 1.1e-05 s⁻¹
self-cleavage kobs at 2500 uM GlcN6P (glucosamine-6-phosphate [6]): 8.73e-05 ± 1.7e-05 s⁻¹
self-cleavage kobs at 10000 uM GlcN6P (glucosamine-6-phosphate [7]): 0.00024 ± 3.4e-05 s⁻¹

AUAAAAGCGCCAGAAGUACAGAAAUGUAGUUGACGAGGAGGAGGUUUAUCGAAUUUACGGCGGAUGCUUCCAAA [C16G U57A C68U]
kcat (glucosamine-6-phosphate [1]): 4.17e-05 ± 9.1e-06 s⁻¹
self-cleavage kobs at 2500 uM GlcN6P (glucosamine-6-phosphate [6]): 5.4e-05 ± 2.1e-05 s⁻¹

AUAAAAGCGCCAGAAGUACAGAAAUGUAGUUGACGAGGAGGAGGCUUAUCGAAUUUUCGGCGGAUGCCUCCAAA [C16G U45C]
kcat (glucosamine-6-phosphate [1]): 0.0003 ± 7.1e-05 s⁻¹
self-cleavage kobs at 640 uM GlcN6P (glucosamine-6-phosphate [5]): 7.2e-05 ± 2.1e-05 s⁻¹
self-cleavage kobs at 2500 uM GlcN6P (glucosamine-6-phosphate [6]): 0.000367 ± 9.7e-05 s⁻¹
self-cleavage kobs at 10000 uM GlcN6P (glucosamine-6-phosphate [7]): 0.000243 ± 3.7e-05 s⁻¹

AUAAAAGCGCCAGAAGUACAGAAAUGUAGUUGACGAGGAGGAGGUUUAUCGAAUUAUCGGCGGAUGCCUCCAAA [C16G U56A]
kcat (glucosamine-6-phosphate [1]): 0.00335 ± 0.00047 s⁻¹
KM (glucosamine-6-phosphate [2]): 2810 ± 590 µM
self-cleavage kobs at 40 uM GlcN6P (glucosamine-6-phosphate [3]): 5.21e-05 ± 9.6e-06 s⁻¹
self-cleavage kobs at 160 uM GlcN6P (glucosamine-6-phosphate [4]): 0.000189 ± 6.3e-05 s⁻¹
self-cleavage kobs at 640 uM GlcN6P (glucosamine-6-phosphate [5]): 0.000593 ± 0.00014 s⁻¹
self-cleavage kobs at 2500 uM GlcN6P (glucosamine-6-phosphate [6]): 0.00135 ± 0.00026 s⁻¹
self-cleavage kobs at 10000 uM GlcN6P (glucosamine-6-phosphate [7]): 0.00286 ± 0.00043 s⁻¹

AUAAAAGCGCCAGAAUUACAGAAAUGUAAUUGACGAGGAGGAGGUUUAUCGAAUUUUCGGCGGAUGCCUCCAAA [C16U G29A]
kcat (glucosamine-6-phosphate [1]): 0.0165 ± 0.0058 s⁻¹
self-cleavage kobs at 40 uM GlcN6P (glucosamine-6-phosphate [3]): 0.00117 ± 0.00016 s⁻¹
self-cleavage kobs at 160 uM GlcN6P (glucosamine-6-phosphate [4]): 0.00189 ± 0.00052 s⁻¹
self-cleavage kobs at 640 uM GlcN6P (glucosamine-6-phosphate [5]): 0.0124 ± 0.0019 s⁻¹
self-cleavage kobs at 2500 uM GlcN6P (glucosamine-6-phosphate [6]): 0.0121 ± 0.0031 s⁻¹
self-cleavage kobs at 10000 uM GlcN6P (glucosamine-6-phosphate [7]): 0.0147 ± 0.0029 s⁻¹

AUAAAAGCGCCAGAACUACAGAAAUGUAAUUGACGAGGAGGAGGUUUAUCGAGUUUUCGGCGGAUGCCUCCAAA [G29A A53G]
kcat (glucosamine-6-phosphate [1]): 0.00571 ± 0.0021 s⁻¹
KM (glucosamine-6-phosphate [2]): 3380 ± 1700 µM
self-cleavage kobs at 40 uM GlcN6P (glucosamine-6-phosphate [3]): 0.000136 ± 3.6e-05 s⁻¹
self-cleavage kobs at 160 uM GlcN6P (glucosamine-6-phosphate [4]): 0.000249 ± 4.3e-05 s⁻¹
self-cleavage kobs at 640 uM GlcN6P (glucosamine-6-phosphate [5]): 0.000915 ± 0.00019 s⁻¹
self-cleavage kobs at 2500 uM GlcN6P (glucosamine-6-phosphate [6]): 0.00162 ± 0.00059 s⁻¹
self-cleavage kobs at 10000 uM GlcN6P (glucosamine-6-phosphate [7]): 0.00483 ± 0.00087 s⁻¹

AUAAAAGCGCCAGAACUACAGAAAUGUAAUUGACGAGGAGGAGGUUUUUCGAAUUUUCGGCGGAUGCCUCCAAA [G29A A48U]
kcat (glucosamine-6-phosphate [1]): 0.000327 ± 8.3e-05 s⁻¹
self-cleavage kobs at 10000 uM GlcN6P (glucosamine-6-phosphate [7]): 2.73e-05 ± 1.1e-05 s⁻¹

AUAAAAGCGCCAGAAGUACAGAAAUGUAGCUGACGAGGAGGAGGUUUAUCGAAUUUUCGGCGGAUGCCUCCAAA [C16G U30C]
kcat (glucosamine-6-phosphate [1]): 0.000111 ± 8.3e-06 s⁻¹
KM (glucosamine-6-phosphate [2]): 763 ± 200 µM
self-cleavage kobs at 640 uM GlcN6P (glucosamine-6-phosphate [5]): 5.29e-05 ± 9.6e-06 s⁻¹
self-cleavage kobs at 2500 uM GlcN6P (glucosamine-6-phosphate [6]): 7.58e-05 ± 1.2e-05 s⁻¹
self-cleavage kobs at 10000 uM GlcN6P (glucosamine-6-phosphate [7]): 0.000109 ± 1.3e-05 s⁻¹

AUAAAAGCGCCAGAAUUACAGAAAUGUAGUUGACGAGGAGGAGGUUUAUCGAAUUUUCGGCGUAUGCCUCCAAA [C16U G63U]
kcat (glucosamine-6-phosphate [1]): 1.26e-05 ± 2.3e-06 s⁻¹

AUAAAAGCGCCAGAAGUACAGAAAUGUAGUUGACGAGGAGGAGGUUUAUCGAAUGUUCGGCGGAUGCCUCCAAA [C16G U55G]
kcat (glucosamine-6-phosphate [1]): 0.0033 ± 0.0015 s⁻¹
self-cleavage kobs at 40 uM GlcN6P (glucosamine-6-phosphate [3]): 0.000147 ± 2.3e-05 s⁻¹
self-cleavage kobs at 160 uM GlcN6P (glucosamine-6-phosphate [4]): 0.000227 ± 5.1e-05 s⁻¹
self-cleavage kobs at 640 uM GlcN6P (glucosamine-6-phosphate [5]): 0.000789 ± 0.00012 s⁻¹
self-cleavage kobs at 2500 uM GlcN6P (glucosamine-6-phosphate [6]): 0.00148 ± 0.00031 s⁻¹
self-cleavage kobs at 10000 uM GlcN6P (glucosamine-6-phosphate [7]): 0.00368 ± 0.00057 s⁻¹

AUAAAAGCGCCAGAAGUACAGAAAUGUAGUUGACGAGGAGGAGGUUCAUCGAAUUUUCGGCGGAUGCCUCCAAA [C16G U47C]
kcat (glucosamine-6-phosphate [1]): 0.00027 ± 0.00013 s⁻¹
self-cleavage kobs at 640 uM GlcN6P (glucosamine-6-phosphate [5]): 0.000231 ± 7.9e-05 s⁻¹
self-cleavage kobs at 2500 uM GlcN6P (glucosamine-6-phosphate [6]): 0.000192 ± 5.1e-05 s⁻¹

AUAAAAGCGCCAGAAUUACAGAAAUGUAGAUGACGAGGAGGAGGUUUAUCGAAUUUUCGGCGGAUGCCUCCAAA [C16U U30A]
kcat (glucosamine-6-phosphate [1]): 0.003 ± 0.00083 s⁻¹
KM (glucosamine-6-phosphate [2]): 2310 ± 910 µM
self-cleavage kobs at 40 uM GlcN6P (glucosamine-6-phosphate [3]): 7.15e-05 ± 7.9e-06 s⁻¹
self-cleavage kobs at 160 uM GlcN6P (glucosamine-6-phosphate [4]): 0.000131 ± 2.6e-05 s⁻¹
self-cleavage kobs at 640 uM GlcN6P (glucosamine-6-phosphate [5]): 0.000648 ± 0.00011 s⁻¹
self-cleavage kobs at 2500 uM GlcN6P (glucosamine-6-phosphate [6]): 0.00171 ± 0.00029 s⁻¹
self-cleavage kobs at 10000 uM GlcN6P (glucosamine-6-phosphate [7]): 0.00242 ± 0.00027 s⁻¹

AUAAAAGCGCCAGAAUUACAGAAAUGUAGCUGACGAGGAGGAGGUUUAUCGAAUUUUCGGCGGAUGCCUCCAAA [C16U U30C]
kcat (glucosamine-6-phosphate [1]): 7.72e-05 ± 8.6e-06 s⁻¹
self-cleavage kobs at 40 uM GlcN6P (glucosamine-6-phosphate [3]): < 1e-05 s⁻¹
self-cleavage kobs at 160 uM GlcN6P (glucosamine-6-phosphate [4]): 3.52e-05 ± 1.7e-05 s⁻¹
self-cleavage kobs at 640 uM GlcN6P (glucosamine-6-phosphate [5]): 6.63e-05 ± 2.2e-05 s⁻¹
self-cleavage kobs at 2500 uM GlcN6P (glucosamine-6-phosphate [6]): 5.88e-05 ± 8.5e-06 s⁻¹
self-cleavage kobs at 10000 uM GlcN6P (glucosamine-6-phosphate [7]): 8.45e-05 ± 9.1e-06 s⁻¹

AUAAAAGCGCCAGAAGUACAGAAAUGUAGUUGACGAGGAGGAGGUGUAUCGAAUUUUCGGCGGAUGCCUCCAAA [C16G U46G]
kcat (glucosamine-6-phosphate [1]): 0.000671 ± 0.00023 s⁻¹
self-cleavage kobs at 160 uM GlcN6P (glucosamine-6-phosphate [4]): 5.87e-05 ± 2.1e-05 s⁻¹
self-cleavage kobs at 640 uM GlcN6P (glucosamine-6-phosphate [5]): 0.000167 ± 4e-05 s⁻¹
self-cleavage kobs at 2500 uM GlcN6P (glucosamine-6-phosphate [6]): 0.000703 ± 0.00022 s⁻¹
self-cleavage kobs at 10000 uM GlcN6P (glucosamine-6-phosphate [7]): 0.000514 ± 0.00016 s⁻¹
